Data as given in patent US12383572B2, “Administration of an anti-activin-a compound to a subject” (AMGEN INC., priority 2013, dated 2025).
Entries after “also recorded” stand apart in the source; their conditions may differ.

Columns and labels:
[1] = test system: endoglin, osteopontin, IGFBP-1, and IGFPB-2; experiment: Western blot of endoglin, osteopontin, IGFBP-1, IGFBP-2 in inh-KO ovarian tumors; type: in vivo, mouse; details: inh-KO mice
Description: Protein extracts were prepared from cell cultures or tissues in T-PER tissue protein extraction reagent (Pierce) containing a mixture of protease inhibitors (Roche). A pool of 50 μg total protein for each group containing equal amounts of protein extract isolated from individual animals was separated by NuPAGE 4-12% Bis-Tris gel (Invitrogen) and transferred to PVDF. The membranes were probed with primary antibodies against total Smad2, p-Smad2 or E-cadherin (1:1000; Cell Signaling), endoglin, osteopontin (1:500; R & D Systems), IGFBP-1, IGFBP-2 (1:500; Abcam) followed by HRP-conjugated secondary antibody (1:2000; Cell Signaling). The membranes were stripped and re-probed with antibody against α-tubulin (1:1000; Cell Signaling).

[2] = test system: TOV-21G ovarian xenograft tumors; experiment: sActRIIB and doxorubicin in TOV-21G tumor-bearing nude mice: tumor size and weight; type: in vivo, human; details: sActRIIB 10 mg/kg SC 1x/week, DOX 2 mg/kg IP 1x/week; 4-week study
Description: The objective of the present study was to examine the effect of pharmacological administration of sActRIIB, doxorubicin (dox), and sActRIIB plus doxorubicin, respectively, on body weight, tumor growth and muscle mass in nude mice implanted with TOV-21G ovarian xenograft tumors. Eight-week-old female Athymic nude mice were SC injected with 0.2 mL of 5×10^6 TOV-21G cells into the left site of the lower flank of the mice. After 10 days of tumor implantation, the mice were divided into 4 groups by body weight and tumor size and then treated with vehicle, sActRIIB, doxorubicin or the combination of sActRIIB and doxorubicin. In addition, a group of non-tumor bearing mice was used as normal control and received PBS.
Mice were weighed weekly. Body weight data were recorded longitudinally. Tumor size was measured longitudinally by using an electronic caliper. The following formula was used to calculate actual tumor volume (Tomayko M and Reynolds C, 1989): (Volume of a rectangular solid tumor: Tumor volume (mm^3)=length (mm)×width (mm)×height (mm) of tumor). At the end of the study, mice in all groups were subjected to terminal necropsy and lean carcass weight (excluding skin, adipose tissue, internal organs, and head) was determined by using standard anatomical dissection procedures. […] All results were expressed as the mean±SEM (standard error of the mean). […]

[3] = test system: TOV-21G, MRC-5, CCD-Lu and THP-1 cell cultures; experiment: VEGF and Ang-1 ELISA of cell culture medium after recombinant activin-A; type: cell-based, human; details: sActRIIB added with activin-A
Description: The serum VEGF levels in inh-KO mice were measured by using immunoassay kit (R & D Systems), and the levels of human VEGF and Ang-1 in cell line culture medium were quantified using ELISA kits purchased from Invitrogen (VEGF) and R & D Systems (Ang-1), by following the manufacturers' recommended protocols.

[4] = test system: ovarian tumors in Inhα KO mice; experiment: sActRIIB single dose, withdrawal and re-administration in female Inhα KO mice: ovarian tumor weight; type: in vivo, mouse
Description: Eleven-to-fourteen-week-old female Inhα KO mice with body weight from 19.41 to 26.82 grams were subcutaneously (SC) injected with either 30 mg/kg sActRIIB or PBS. Age-matched WT littermate control mice were injected with PBS and served as baseline controls. The study ended by necropsy 2 weeks after injections. Two cohorts of mice were used in the study. Eleven-to-thirteen-week-old female Inhα KO mice with body weight from 17.7 to 27.4 grams were SC injected with either 30 mg/kg sAcLRIIB or PBS. Age-matched WT littermate control mice were injected with PBS and served as baseline controls. The withdrawal lasted for 8 weeks. At the end of the withdrawal, the sActRIIB treated mice were divided by balanced body weight into 2 groups (Group 3 and Group 4).
Group 2 and Group 3 were euthanized to examine the ovarian tumors. Group 4 received another dose of 30 mg/kg sActRIIB and the mice were euthanized together with the WT mice 4 weeks later (total 12 weeks). Mouse body weights were recorded once per week up to 12 weeks. For necropsy, mice were euthanized in a CO2 chamber. Normal ovaries in WT mice and ovarian tumors in Inhα KO mice were collected and weighed. All results were expressed as the mean±standard error of the mean (SEM). Statistical significance of difference between groups was analyzed using Student's 2-tailed t-test on MS Excel 5.0 software. The Chi-Square test (GraphPad Software Inc, San Diego, CA) was used to examine the differences in animal survival time. Statistical significance between groups is represented by p<0.05 values.

[5] = test system: G361 human melanoma xenografts; experiment: G361 melanoma xenograft growth in nude mice; type: in vivo; details: sActRIIB 20 mg/kg SC 1x/week from day 14
Description: G361 and 5637 xenografts. 5×10^6 G361 melanoma cells and 5637 bladder carcinoma cells, respectively, were inoculated SC into individual athymic nu/nu mice (Harlan Inc). Treatment was initiated 4 days after 5637 implantation and 14 days after G361 implantation, when the tumor volumes reached 130 mm^3−150 mm^3. 5637-implanted mice received PBS or activin-A antibody (10 mg/kg, SC, 2×/week). G361-implanted mice received PBS or sActRIIB (20 mg/kg, SC, 1×/week).
For all xenograft experiments, the tumor sizes were measured longitudinally by using an electronic caliper. Immediately prior to the 1st dose, the tumor-bearing mice were randomized to ensure even distribution in tumor sizes across different groups. Tumor volumes (mm^3) were calculated as tumor length (mm)×tumor width (mm)×tumor height (mm). Tumor weights were determined by necropsy.

B1: sActRIIB: extracellular domain of human activin type-2B receptor fused to IgG2 Fc; full length SEQ ID NO: 21 (Table 9) (protein, listed as Homo sapiens)
chain: ETRWCIYYNANWELERTNQSGLERCEGEQDKRLHCYASWRNSSGTIELVKKGCWLDDFNCYDRQECVATEENPQVYFCCCEGNFCNERFTHLPEAGGPEVTYEPPPTAPTGGGGSVECPPCPAPPVAGPSVFLFPPKPKDTLMISRTPEVTCVVVDVSHEDPEVQFNWYVDGVEVHNAKTKPREEQFNSTFRVVSVLTVVHQDWLNGKEYKCKVSNKGLPAPIEKTISKTKGQPREPQVYTLPPSREEMTKNQVSLTCLVKGFYPSDIAVEWESNGQPENNYKTTPPMLDSDGSFFLYSKLTVDKSRWQQGNVFSCSVMHEALHNHYTQKSLSLSPGK
For B1, the “induction of endoglin, osteopontin, IGFBP-1 and IGFBP-2 proteins” value [1] was “abolished completely”, the “tumor size and tumor weight vs vehicle-treated TOV-21G group” value [2] was “capable of inhibiting TOV-21G tumor growth” and the “activin-A-induced release of angiogenic factors (ELISA)” value [3] was “blocked completely this activin-A-induced release of angiogenic factors”. The “ovarian tumor weight at 8 weeks after withdrawal from the initial single dose” value ([4]; 30 mg/kg SC) was “grown in size similar to that of the PBS-treated Inhα KO mice”, the “ovarian tumor weight two weeks after a single dose” value ([4]; 30 mg/kg SC) was “reduced to the WT control level” and the “ovarian tumor mass at week 12 (4 weeks after re-administration)” value ([4]; re-administration 30 mg/kg at week 8, 30 mg/kg) was “effectively reduced the tumor mass; also recorded: effectively regressed the ovarian tumor mass to the size of the WT control group”. The “growth rate and size of G361 xenografts” value [5] was “significantly decreased the growth rates and sizes”.
